Measured values as given in patent publication US20160185837A1 (Medimmune Limited, priority 2013, published 2016).

Key:
[1] = target: T1, hGIPr (C3) (Homo sapiens, UniProt P48546); assay: BSA-cAMP assay, second human GIPr cell line hGIPr (C3); type: cell-based; settings: second human GIPr cell line, STDEV or N in the line below, read-out: cAMP activity hGIPr (C3) (EC50)
T1 construct: expressed in transfected cells
T1 sequence (P48546 22-466): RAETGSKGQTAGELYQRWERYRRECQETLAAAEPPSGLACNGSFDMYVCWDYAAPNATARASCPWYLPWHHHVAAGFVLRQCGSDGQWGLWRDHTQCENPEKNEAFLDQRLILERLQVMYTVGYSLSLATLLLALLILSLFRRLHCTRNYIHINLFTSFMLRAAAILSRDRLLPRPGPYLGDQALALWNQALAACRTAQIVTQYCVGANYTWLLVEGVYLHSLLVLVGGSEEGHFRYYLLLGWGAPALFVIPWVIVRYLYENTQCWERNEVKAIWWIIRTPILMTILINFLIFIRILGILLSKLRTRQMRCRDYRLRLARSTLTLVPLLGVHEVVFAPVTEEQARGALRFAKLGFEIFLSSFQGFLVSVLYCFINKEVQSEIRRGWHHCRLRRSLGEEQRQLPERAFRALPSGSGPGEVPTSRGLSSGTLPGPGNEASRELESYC
Procedure: For human GIPr, two different lines were used, shown as “hGIPr” and “hGIPr (C3)” in Table 11. Peptide activation of these various receptors results in downstream production of cAMP second messenger that can be measured in a functional activity assay.
One basic cAMP assays was performed, differing in the medium used for the assay, the “BSA-cAMP assay”:
BSA-based assay medium: 0.1% bovine serum albumin (BSA) in
Hanks Balanced Salt Solution (GIBCO or Sigma), containing 0.5 mM IBMX (Sigma #17018);
In certain aspects, the assay can also be carried out in medium supplemented with serum albumin that corresponds to the receptor being tested, e.g., human serum albumin for testing cAMP activity at hGIPr or hGLP-1r, rat serum albumin for testing cAMP activity at rGIPr or rGLP-1r, and so on. […]
cAMP levels were measured using a commercially available cAMP dynamic 2 HTRF kit (Cisbio, Cat #62AM4PEJ), following the two step protocol as per manufacturer's recommendations. […] Plates were incubated at room temperature for one hour and then read on an Envision (Perkin Elmer) using excitation wavelength of 320 nm and emission wavelengths of 620 nm & 665 nm. Data was transformed to % Delta F as described in manufacturer's guidelines and then transformed to percent activation of maximal native agonist response and analysed by 4-parameter logistic fit to determine EC50 values. […]

[2] = target: T2, rat GIP receptor (rGIPr) (Rattus norvegicus, UniProt P43219); assay: BSA-cAMP assay, cells expressing rat GIP receptor; type: cell-based; settings: BSA-cAMP assay; read-out: cAMP activity rGIPr (EC50)
T2 construct: expressed in transfected cells; host or cells: HEK293s or CHO cells
T2 sequence (P43219 19-455): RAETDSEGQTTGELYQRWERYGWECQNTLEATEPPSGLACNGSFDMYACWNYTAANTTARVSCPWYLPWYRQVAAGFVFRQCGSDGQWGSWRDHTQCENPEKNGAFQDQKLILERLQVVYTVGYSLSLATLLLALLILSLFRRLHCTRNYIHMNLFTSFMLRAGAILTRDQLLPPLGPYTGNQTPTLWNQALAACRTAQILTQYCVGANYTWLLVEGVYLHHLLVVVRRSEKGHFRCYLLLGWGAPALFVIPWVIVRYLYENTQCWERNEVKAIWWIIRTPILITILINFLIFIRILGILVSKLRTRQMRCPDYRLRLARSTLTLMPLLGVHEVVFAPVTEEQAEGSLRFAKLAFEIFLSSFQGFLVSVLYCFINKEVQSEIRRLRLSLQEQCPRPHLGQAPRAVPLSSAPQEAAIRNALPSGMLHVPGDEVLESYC
Procedure, shortened: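 EC50 is the midpoint of an unconstrained 4-parameter logistic fit to HTRF cAMP data, expressed as percent of maximal native agonist response, from two separate occasions. Rodent (mouse, rat) GLP-1R- or GIPR-expressing cells were incubated with compound 30 min at room temperature in 0.1% BSA medium, in duplicate.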

EC50 [1]: 0.8 nM | EC50 [2]: 0.0076 nM
B1: IP018 (protein)
chain: YSEGTFISDYSIAMDKIHQQDFVNWLLAQKAAAGGSGSTASSGSGSATGGGGAATHTCPPCPAPEF
modifications: /note=“Description of Artificial Sequence Synthetic Peptide-linker-hinge polypeptide”
